{"source": "patent US7235522B2", "about": "“Use of microparticles having a protein and an antibody adsorbed thereon for preparing a pharmaceutical composition for intranasal administration” (priority 1997, dated 2007)", "origin": "cited, not measured here", "conditions": "in vivo", "data": [{"substance": "insulin [insulin (51 AA)]", "values": [{"measurement": "absorption of proteins administered by nasal route", "value": "almost zero"}]}]}
